Data taken from paper PMC5094776, “The miR165/166 Mediated Regulatory Module Plays Critical Roles in ABA Homeostasis and Response in Arabidopsis thaliana”.

T1: GST-PHB (PHABULOSA, HD-ZIPIII) (Arabidopsis thaliana, UniProt O04291 1-852)
T1 sequence: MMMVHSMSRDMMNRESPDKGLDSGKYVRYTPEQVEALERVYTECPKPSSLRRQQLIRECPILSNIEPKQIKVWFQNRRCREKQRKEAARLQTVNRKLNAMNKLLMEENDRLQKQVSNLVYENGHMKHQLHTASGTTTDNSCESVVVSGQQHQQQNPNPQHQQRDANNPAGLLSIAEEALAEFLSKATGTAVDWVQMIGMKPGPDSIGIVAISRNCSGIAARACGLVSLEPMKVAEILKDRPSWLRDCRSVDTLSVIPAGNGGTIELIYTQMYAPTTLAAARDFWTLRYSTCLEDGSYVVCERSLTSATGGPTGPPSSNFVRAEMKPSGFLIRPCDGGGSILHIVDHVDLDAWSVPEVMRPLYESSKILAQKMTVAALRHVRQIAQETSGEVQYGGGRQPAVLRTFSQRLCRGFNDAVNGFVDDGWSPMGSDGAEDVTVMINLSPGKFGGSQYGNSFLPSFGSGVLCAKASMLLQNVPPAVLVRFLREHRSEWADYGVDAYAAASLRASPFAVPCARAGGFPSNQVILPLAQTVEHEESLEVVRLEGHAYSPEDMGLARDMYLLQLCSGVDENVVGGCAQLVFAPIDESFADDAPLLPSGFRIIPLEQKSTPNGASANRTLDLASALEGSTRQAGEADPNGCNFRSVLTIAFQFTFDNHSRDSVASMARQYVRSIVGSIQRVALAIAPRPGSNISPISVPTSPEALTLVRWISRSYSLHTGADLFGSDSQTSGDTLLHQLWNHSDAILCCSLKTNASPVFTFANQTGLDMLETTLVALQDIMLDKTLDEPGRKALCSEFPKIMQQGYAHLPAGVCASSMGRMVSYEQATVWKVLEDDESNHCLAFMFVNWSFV

B1: BG1 binding motif probe (dsDNA)
DNA 1: AGAAGTTTTGGTAATGATACTGAAACACATTTC
DNA 2: GAAATGTGTTTCAGTATCATTACCAAAACTTCT
B2: ABI4 binding motif probe (dsDNA)
DNA 1: TTAGCCGTTATGTAATGATTTATTCTAGTTTCA
DNA 2: TGAAACTAGAATAAATCATTACATAACGGCTAA

Molecular target: T1, GST-PHB (PHABULOSA, HD-ZIPIII)
Assay: EMSA; unlabeled self-competitor at 10x and 100x also tested (gel only); 20 mM Tris-HCl pH 7.5, 300 mM NaCl, 5 mM MgCl2, 0.1% NP-40, 0.5 mM DTT, 20-60 min, room temperature; 6% PAGE in Tris-glycine
Settings: protein: recombinant; tags: GST (N-terminal, pGEX4T-1); chain copies: 2; label: 32P; blunt

Binder | binding result
B1 | binds
B2 | binds
